{"source": "the RNAGym collection of RNA variant scans (doi:10.1021/acssynbio.7b00057)", "parents": {"B1": {"name": "Pistol ribozyme (parent)", "chain": "GGGUCGUUGUUCCAUAAUCGCGUGGAUAUGGCACGCAAGUUUCUACCGGGCACCGUAAAUGUCCGACUGGAGCCGUUCGGGCGGCUAUAAACAGACCUCAGGCCCGAAGCGUGGCGGCACCUGCCGCCGGUGGUAAAAAAGAUCGGAAGAGCACACGUCU"}}, "data": [{"variants_of": "B1", "test": "aptazyme ON/OFF ratio, guanine; higher = stronger switching; co-transcriptional cleavage with and without guanine", "values": [{"variant": "U7G U8G G9A U11C", "aptazyme ON/OFF ratio": 1.54}, {"variant": "U7G U8G G9C U10A U11C C12U", "aptazyme ON/OFF ratio": 1.08}, {"variant": "U7G U8G G9C U10A U11C C12G", "aptazyme ON/OFF ratio": 1.11}, {"variant": "U7G U8G G9C U10A U11C C12A", "aptazyme ON/OFF ratio": 1.06}, {"variant": "U7G U8G G9C U10G U11C C12U C13G", "aptazyme ON/OFF ratio": 1.33}, {"variant": "U7G U8G G9C U10G U11C C12U C13U", "aptazyme ON/OFF ratio": 1.11}, {"variant": "U7G U8G G9C U10G U11C C12U C13A", "aptazyme ON/OFF ratio": 1.15}, {"variant": "U7G U8G G9A U11C C12U C13A", "aptazyme ON/OFF ratio": 1.31}, {"variant": "U7G U8G G9A U11C C12U C13G", "aptazyme ON/OFF ratio": 1.44}, {"variant": "U7G U8G G9A U11C C12U C13U", "aptazyme ON/OFF ratio": 1.02}, {"variant": "U7G U8G G9C U10C U11C C12G C13G", "aptazyme ON/OFF ratio": 1.06}, {"variant": "U7G U8G G9C U10C U11C C12G C13A", "aptazyme ON/OFF ratio": 1.05}, {"variant": "U7G U8G G9C U10C U11C C12G C13U", "aptazyme ON/OFF ratio": 1.04}, {"variant": "U7G U8G G9C U10G", "aptazyme ON/OFF ratio": 1.74}, {"variant": "U7G U8G G9C U10A", "aptazyme ON/OFF ratio": 1.58}, {"variant": "U7G U8G G9C U10C", "aptazyme ON/OFF ratio": 2.35}, {"variant": "U7G U8G G9C U11A C12A C13A", "aptazyme ON/OFF ratio": 1.14}, {"variant": "U7G U8G G9C U11A C12A C13G", "aptazyme ON/OFF ratio": 1.05}, {"variant": "U7G U8G G9C U11A C12A C13U", "aptazyme ON/OFF ratio": 1.16}, {"variant": "U7G U8G G9C U10C U11A C12U C13U", "aptazyme ON/OFF ratio": 1.23}, {"variant": "U7G U8G G9C U10C U11A C12U C13G", "aptazyme ON/OFF ratio": 1.32}, {"variant": "U7G U8G G9C U10C U11A C12U C13A", "aptazyme ON/OFF ratio": 1.36}, {"variant": "U7G U8G G9C U10G C13U", "aptazyme ON/OFF ratio": 1.26}, {"variant": "U7G U8G G9C U10G C13A", "aptazyme ON/OFF ratio": 1.31}, {"variant": "U7G U8G G9C U10G C13G", "aptazyme ON/OFF ratio": 1.28}, {"variant": "U7G U8G G9C U10A U11A C12A C13A", "aptazyme ON/OFF ratio": 1.05}, {"variant": "U7G U8G G9C U10A U11A C12A C13G", "aptazyme ON/OFF ratio": 1.04}, {"variant": "U7G U8G G9C U10A U11A C12A C13U", "aptazyme ON/OFF ratio": 1.04}, {"variant": "U7G U8G G9C U10G C12U C13A", "aptazyme ON/OFF ratio": 1.06}, {"variant": "U7G U8G G9C U10G C12U C13U", "aptazyme ON/OFF ratio": 1.09}, {"variant": "U7G U8G G9C U10G C12U C13G", "aptazyme ON/OFF ratio": 1.05}, {"variant": "U7G U8G G9C U10C U11G C12U C13A", "aptazyme ON/OFF ratio": 1.25}, {"variant": "U7G U8G G9C U10C U11G C12U C13U", "aptazyme ON/OFF ratio": 1.22}, {"variant": "U7G U8G G9C U10C U11G C12U C13G", "aptazyme ON/OFF ratio": 1.22}, {"variant": "U7G U8G G9C C13A", "aptazyme ON/OFF ratio": 1.42}, {"variant": "U7G U8G G9C C13U", "aptazyme ON/OFF ratio": 1.47}, {"variant": "U7G U8G G9C C13G", "aptazyme ON/OFF ratio": 1.16}, {"variant": "U7G U8G G9C U10A U11G C12U C13U", "aptazyme ON/OFF ratio": 1.05}, {"variant": "U7G U8G G9C U10A U11G C12U C13G", "aptazyme ON/OFF ratio": 1.04}, {"variant": "U7G U8G G9C U10A U11G C12U C13A", "aptazyme ON/OFF ratio": 1.07}, {"variant": "U7G U8G G9C U10G U11G C12A C13G", "aptazyme ON/OFF ratio": 1.15}, {"variant": "U7G U8G G9C U10G U11G C12A C13U", "aptazyme ON/OFF ratio": 1.09}, {"variant": "U7G U8G G9C U10G U11G C12A C13A", "aptazyme ON/OFF ratio": 1.09}, {"variant": "U7G U8G G9C U10C U11G C12A C13A", "aptazyme ON/OFF ratio": 1.17}, {"variant": "U7G U8G G9C U10C U11G C12A C13G", "aptazyme ON/OFF ratio": 1.31}, {"variant": "U7G U8G G9C U10C U11G C12A C13U", "aptazyme ON/OFF ratio": 1.3}, {"variant": "U7G U8G G9C U11G C12A C13U", "aptazyme ON/OFF ratio": 1.3}, {"variant": "U7G U8G G9C U11G C12A C13G", "aptazyme ON/OFF ratio": 1.23}, {"variant": "U7G U8G G9C U11G C12A C13A", "aptazyme ON/OFF ratio": 1.14}, {"variant": "U7G U8G G9C U10G U11A", "aptazyme ON/OFF ratio": 1.32}, {"variant": "U7G U8G G9C U10G U11C", "aptazyme ON/OFF ratio": 1.06}, {"variant": "U7G U8G G9C U10G U11G", "aptazyme ON/OFF ratio": 1.26}, {"variant": "U7G U8G G9C U11A", "aptazyme ON/OFF ratio": 4.32}, {"variant": "U7G U8G G9C U11C", "aptazyme ON/OFF ratio": 2.07}, {"variant": "U7G U8G G9C U11G", "aptazyme ON/OFF ratio": 2.2}, {"variant": "U7G U8G G9C C12G C13G", "aptazyme ON/OFF ratio": 1.13}, {"variant": "U7G U8G G9C C12G C13U", "aptazyme ON/OFF ratio": 1.35}, {"variant": "U7G U8G G9C C12G C13A", "aptazyme ON/OFF ratio": 1.28}, {"variant": "U7G U8G G9U U10A C12A C13U", "aptazyme ON/OFF ratio": 1.15}, {"variant": "U7G U8G G9U U10A C12A C13A", "aptazyme ON/OFF ratio": 1.21}, {"variant": "U7G U8G G9U U10A C12A C13G", "aptazyme ON/OFF ratio": 1.14}, {"variant": "U7G U8G G9A U11C C12G C13A", "aptazyme ON/OFF ratio": 1.21}, {"variant": "U7G U8G G9A U11C C12G C13G", "aptazyme ON/OFF ratio": 1.11}, {"variant": "U7G U8G G9A U11C C12G C13U", "aptazyme ON/OFF ratio": 1.35}, {"variant": "U7G U8G G9A U11G C13G", "aptazyme ON/OFF ratio": 1.17}, {"variant": "U7G U8G G9A U11G C13U", "aptazyme ON/OFF ratio": 1.3}, {"variant": "U7G U8G G9A U11G C13A", "aptazyme ON/OFF ratio": 1.26}, {"variant": "U7G U8G G9C U10C U11C C12U", "aptazyme ON/OFF ratio": 1.18}, {"variant": "U7G U8G G9C U10C U11C C12G", "aptazyme ON/OFF ratio": 1.05}, {"variant": "U7G U8G G9C U10C U11C C12A", "aptazyme ON/OFF ratio": 1.09}, {"variant": "U7G U8G G9C U10C U11G C12U", "aptazyme ON/OFF ratio": 1.37}, {"variant": "U7G U8G G9C U10C U11G C12G", "aptazyme ON/OFF ratio": 1.23}, {"variant": "U7G U8G G9C U10C U11G C12A", "aptazyme ON/OFF ratio": 1.22}, {"variant": "U7G U8G G9C U10G U11A C12U", "aptazyme ON/OFF ratio": 1.23}, {"variant": "U7G U8G G9C U10G U11A C12A", "aptazyme ON/OFF ratio": 1.17}, {"variant": "U7G U8G G9C U10G U11A C12G", "aptazyme ON/OFF ratio": 1.16}, {"variant": "U7G U8G G9C U10C U11C C12U C13U", "aptazyme ON/OFF ratio": 1.06}, {"variant": "U7G U8G G9C U10C U11C C12U C13G", "aptazyme ON/OFF ratio": 1.23}, {"variant": "U7G U8G G9C U10C U11C C12U C13A", "aptazyme ON/OFF ratio": 1.08}, {"variant": "U7G U8G G9C U11C C12G C13G", "aptazyme ON/OFF ratio": 1.06}, {"variant": "U7G U8G G9C U11C C12G C13A", "aptazyme ON/OFF ratio": 1.16}, {"variant": "U7G U8G G9C U11C C12G C13U", "aptazyme ON/OFF ratio": 1.39}, {"variant": "U7G U8G G9C C12A C13A", "aptazyme ON/OFF ratio": 1.22}]}]}
